Measurements published in the RNAGym collection of RNA variant scans (doi:10.1073/pnas.2313332121).
Fewer inactive variants are shown than the library holds.

B1: TPR 5TU (parent)
chain: GGAUCUUCUCGAUCUAACAAAAAAGACAAAUCUGCCACAAAGCUUGAGAGCAUCUUCGGAUGCAGAGGCGGCAGCCUUCGGUGGCGCGAUAGCGCCAACGUUCUCAACUAUGACACGCAAAACGCGUGCUCCGUUGAAUGGAGUUUAUCAUG

Variants of: B1
Test: polymerase ribozyme fitness, log enrichment relative to wild type (log ratio); higher = more active; in vitro selection for triplet polymerase activity
Method in brief: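 Mutant libraries of each subunit of a heterodimeric triplet polymerase ribozyme were built by PCR and transcribed. Each library went through one round of in vitro selection in triplicate: annealing with biotinylated primer, partner subunit and triplets, frozen incubation at −7 °C, gel excision of extended constructs, streptavidin-bead capture and RT-PCR. Input and output libraries were Illumina-sequenced; only genotypes with ≥10 input reads and ≥1 read per output were kept. Fitness is log2(genotype enrichment/wild-type enrichment), using inverse-variance-weighted replicate averages.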

Variant	polymerase ribozyme fitness (log ratio)
C75U G94C A122G U145A	-3.35
U77G G92U A115U	≤ -4.2
C76G G83U C103U	≤ -4.2
C75G G92C C123A	≤ -4.2
C76U C93A	-2.34
C76G G94C	≤ -4.2
C75G C118U	-3.87
C76G G86A	≤ -4.2
C76A U82G C96U	-0.697
A73U G84A U144C	-1.83
C75U G92U G112C A113U C114G	≤ -4.2
C75U C95G C96G	-3.09
U77G C93U G117C	≤ -4.2
G74C A150C	≤ -4.2
C76U A150U	0.843
C76U A150C	-3.79
C76U G88A C99A C103A	≤ -4.2
C76U C85G A147C	-0.612
C75U A89C C95U	-0.65
G74A U148A	≤ -4.2
C75U G80C A107U	≤ -4.2
C76A U82A C85G A106G A107U C108G C129A	≤ -4.2
C75U G92U C93G	-1.13
G74A A150U	-2.61

Variant	polymerase ribozyme fitness (log ratio)
C75U U90C A91U C93G G94U A98C	≤ -4.2
C76U C105G	-3.71
A73G G83A	-1.72
C75A C76U G86U A106U G126A U148C C149A	≤ -4.2
U77G G117U	≤ -4.2
C76G A115G A121U	≤ -4.2
G74A U82G G94U G136A	≤ -4.2
A73U C79U G88A A119G G124U C149A	≤ -4.2
C75G G86C C87U	≤ -4.2
C76A U145C	-0.484
C76A C96U U145G	-0.785
C76U G81A	0.573
C76U U82G C87U	0.25
C76A C105U	-2.47
G74C U90C A91C U104G U130A	≤ -4.2
C76G G92U A121G G143U	≤ -4.2
C76U G88U	≤ -4.2
C75A C79U G94C	≤ -4.2
U77C C93U G100A A119U A150C	≤ -4.2
C76U A91U G92A	-4.02
C76A U104A C125A A142C U144A	≤ -4.2
C75G C96U A120C	≤ -4.2
C75G U77A A91G A106U U134G	≤ -4.2
C75U C79A	≤ -4.2

Variant	polymerase ribozyme fitness (log ratio)
G74C A97U C132A G141A G143C	≤ -4.2
C76U C95U	0.961
C76A G83A	-2.85
C76U C85A G141C U148C	-3.74
C75G U134G	-4
A73U C96A U109A C116U	-3.64
C76A A142G U146A	-1.52
C76A C93A	-3.88
C76A C79U C96A U139A	≤ -4.2
C75U G88A A119U	≤ -4.2
C75U C93U	-0.656
C75U C93G	-3
C76U U82G G83A C105A U134C U146A U148G	≤ -4.2
G74A U77A G92U G112U G124A	≤ -4.2
U78A C93A G124U	≤ -4.2
A73G U145G	-0.0134
C76A U77G C95U G100U	-4.15
A73U C85A	-2.44
C75A C95U A98U C103U U145G U146G	≤ -4.2
C76G U78C C93U C103G A137G	≤ -4.2
C76U C95A C96U U151G	≤ -4.2
C76A G128C	-3.67
G74A U77G G83A	≤ -4.2
C76U G84U A98U	-1.66

Variant	polymerase ribozyme fitness (log ratio)
C75U A91C A119G G136U	≤ -4.2
G74A A106G A122U	≤ -4.2
U77A G88A	≤ -4.2
C76A C95U	0.252
C75G A97U	≤ -4.2
C76U G94A	1.11
U77G U78C C85U	≤ -4.2
U77G C93U G100U	≤ -4.2
C75A G80C C105G	≤ -4.2
C76A U104C	-3.57
C76A C99A	-4.05
G74C C105U A107G	≤ -4.2
A73U G84A G92A A122C U134A	≤ -4.2
U77C G84U A106C	≤ -4.2
C75G G94C	-3.53
C75G G94A	-4.08
U77G C85U C108A A113G	≤ -4.2
C75G C93U	-3.74
G74A G100U U104C U109G U146A	≤ -4.2
C75U U139A G140C	-4.11
C75G C85U A106C A115G G141U	≤ -4.2
C75G C85U U101C	≤ -4.2
C76U G84U	-0.883
C76U G84C	-1.35

Variant	polymerase ribozyme fitness (log ratio)
C76U A119G G126U U139G	-0.649
C76G G81A	≤ -4.2
C75U U134A	-1.13
U77C A91U U146A	≤ -4.2
C76U G143A	-1.28
C76A G86U	-1.75
A73U C95A U104G	-4.05
C76U U82C A89G	-1.3
C76U G84A U104G U151C	≤ -4.2
C75U G86C A115U	-2.41
A73G G126U	-0.214
A73G G126C	0.529
C76A U78C C103G	≤ -4.2
C76U G86U	-2.16
A73U G92U G141A U145A	-3.24
C76A C96G	-1.51
U77A C93A A113C	≤ -4.2
U77G G86U C93G C96A C118G U145G	≤ -4.2
U77A C87U A98C C103A C125U U135G	≤ -4.2
U77C C96A	-2.82
G74C C76A C87U C114U C116U	≤ -4.2
C76A U135C	-1.96
A73U G80U	-2.82
G74A A89C G94U U109G G117U	≤ -4.2

Variant	polymerase ribozyme fitness (log ratio)
C76G A91C	≤ -4.2
C76G C87G U90A A121C A122U	≤ -4.2
U77A C85U A91G G133C A142G	≤ -4.2
A73U G100U U104A G126C	≤ -4.2
G74C C118U	-4.02
C75G G81A G92U C125G	≤ -4.2
C76A A91G	-3.83
C76A A91U	≤ -4.2
G74U C85G	≤ -4.2
G74A G84A A89G	≤ -4.2
G74A A89C	≤ -4.2
C76A C87U G92C A142G	≤ -4.2
A73G G128C	-3.67
A73U C118U	-0.982
G74C U82C	-4.05
C76A A119U U135C C149G	≤ -4.2
C75G C85U	-3.58
U77G A89U C95A C114U C125G	≤ -4.2
C75U G83U C129G U144G	≤ -4.2
C76G G84U C116A	≤ -4.2
C76U G84U C125U G141U	-3.46
U77C G94C	-3.48
C75U A91G U104A U139A	≤ -4.2
G74A C85G	-3.83

Variant	polymerase ribozyme fitness (log ratio)
G74A C85U	-3.54
C76A C85A A138G U145C	≤ -4.2
C76U G84A A119U U145G	-2.68
C76A G83C A137G	-3.62
A73G U77C G88C	≤ -4.2
A73G C125G	-0.161
C75U G84U U148A	≤ -4.2
G74A U77G	≤ -4.2
C75U U144C	-0.607
C76U G84A C118U U134A G140C U151A	≤ -4.2
C76A U102G	≤ -4.2
A73U C93U G136A	-1.59
U77C G92C	-3.48
G74C A89U U146C	≤ -4.2
A73U C93A	-3.39
A73U C93U	-1.62
C76G G84A A122G	≤ -4.2
A73U C103G	≤ -4.2
C76U A89G	-1.03
C75U G94C A142C	-2.58
A73U C105G	-3.79
C75U U145C U146G	-0.419
C75G C129U	≤ -4.2
